B1: bovine iCP subunit α2 (natural protein, UniProt Q3T0Y5 1-234, looked up)
chain: MAERGYSFSLTTFSPSGKLVQIEYALAAVAGGAPSVGIKAANGVVLATEKKQKSILYDERSVHKVEPITKHIGLVYSGMGPDYRVLVHRARKLAQQYYLVYQEPIPTAQLVQRVASVMQEYTQSGGVRPFGVSLLICGWNEGRPYLFQSDPSGAYFAWKATAMGKNYVNGKTFLEKRYNEDLELEDAIHTAILTLKESFEGQMTEDNIEVGICNEAGFRRLTPTEVKDYLAAIA
notes: 20S proteasome subunit α2, bovine; Stood in the experiments as a subunit of m2; source: purified from bovine spleen as a subunit of the iCP
B2: human PA28α (natural protein)
chain: MAMLRVQPEAQAKVDVFREDLCTKTENLLGSYFPKKISELDAFLKEPALNEANLSNLKAPLDIPVPDPVKEKEKEERKKQQEKEDKDEKKKGEDEDKGPPCGPVNCNEKIVVLLQRLKPEIKDVIEQLNLVTTWLQLQIPRIEDGNNFGVAVQEKVFELMTSLHTKLEGFHTQISKYFSERGDAVTKAAKQPHVGDYRQLVHELDEAEYRDIRLMVMEIRNAYAVLYDIILKNFEKLKKPRGETKGMIY
notes: C-terminal residue printed as Y249; Stood in the experiments as a subunit of m1; also called PA28 α1, α2, α3, α4 (its copies in the heptamer); source: E. coli BL21 (DE3), co-expressed with PA28β, purified as the PA28αβ heteroheptamer
B3: human PA28β (natural protein)
chain: not shown
notes: C-terminal residue printed as Y239; Stood in the experiments as a subunit of m1; also called PA28 β1, β2, β3 (its copies in the heptamer); source: E. coli BL21 (DE3), co-expressed with PA28α, purified as the PA28αβ heteroheptamer
B4: bovine iCP subunit α4 (natural protein)
chain: not shown
notes: 20S proteasome subunit α4, bovine; Stood in the experiments as a subunit of m2; source: purified from bovine spleen as a subunit of the iCP
B5: bovine iCP subunit α5 (natural protein, UniProt Q5E987 1-241, looked up)
chain: MFLTRSEYDRGVNTFSPEGRLFQVEYAIEAIKLGSTAIGIQTSEGVCLAVEKRITSPLMEPSSIEKIVEIDAHIGCAMSGLIADAKTLIDKARVETQNHWFTYNETMTVESVTQAVSNLALQFGEEDADPGAMSRPFGVALLFGGVDEKGPQLFHMDPSGTFVQCDARAIGSASEGAQSSLQEVYHKSMTLKEAIKSSLIILKQVMEEKLNATNIELATVQPGQNFHMFTKEELEEVIKDI
notes: 20S proteasome subunit α5, bovine; Stood in the experiments as a subunit of m2; source: purified from bovine spleen as a subunit of the iCP

Assays:
Details in all cases: both partners purified
human PA28β = biological target: B3; test: cryo-EM structure; PA28αβ and iCP mixed at a molar ratio of 10:1, 37 °C 30 min, cross-linked with 0.1% glutaraldehyde at 4 °C for 2 h, glycerol gradient; single-capped (4.1 Å) and double-capped (4.2 Å) complexes and free iCP (3.3 Å) from one data set
human PA28α = biological target: B2; test: as above
bovine iCP subunit α3 = biological target: T1, bovine iCP subunit α3 (bovine, UniProt Q3ZCK9 1-261); test: as above
T1 construct: 20S proteasome subunit α3, bovine; Stood in the experiments as a subunit of m2; source: purified from bovine spleen as a subunit of the iCP

bovine iCP subunit α4 = biological target: B4; test: as above
bovine iCP subunit α6 = biological target: T2, bovine iCP subunit α6 (bovine, UniProt Q3T0X5 1-263); test: cross-linking; XL-MS: PA28αβ and iCP mixed 10:1, 37 °C 30 min, 0.25 mM BS3 on ice 2 h, glycerol gradient, trypsin digest, pLink2; E-value threshold 1.00E-02
T2 construct: 20S proteasome subunit α6, bovine; Stood in the experiments as a subunit of m2; source: purified from bovine spleen as a subunit of the iCP
T2 sequence (Q3T0X5 whole entry): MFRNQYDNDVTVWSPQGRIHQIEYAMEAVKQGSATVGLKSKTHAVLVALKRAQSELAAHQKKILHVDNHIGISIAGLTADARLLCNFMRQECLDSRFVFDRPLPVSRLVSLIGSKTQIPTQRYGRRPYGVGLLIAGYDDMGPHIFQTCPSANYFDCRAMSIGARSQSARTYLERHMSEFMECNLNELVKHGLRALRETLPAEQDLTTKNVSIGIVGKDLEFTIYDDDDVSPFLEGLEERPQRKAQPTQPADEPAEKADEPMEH

T1 sequence (Q3ZCK9 whole entry): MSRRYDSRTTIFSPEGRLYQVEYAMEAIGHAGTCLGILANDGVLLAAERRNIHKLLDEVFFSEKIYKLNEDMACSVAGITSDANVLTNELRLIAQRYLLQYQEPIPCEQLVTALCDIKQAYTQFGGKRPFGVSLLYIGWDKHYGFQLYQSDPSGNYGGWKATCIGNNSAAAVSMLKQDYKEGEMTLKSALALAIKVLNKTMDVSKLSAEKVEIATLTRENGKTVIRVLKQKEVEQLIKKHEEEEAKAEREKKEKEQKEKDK
bovine iCP subunit α4, sequence (Q3ZBG0 whole entry): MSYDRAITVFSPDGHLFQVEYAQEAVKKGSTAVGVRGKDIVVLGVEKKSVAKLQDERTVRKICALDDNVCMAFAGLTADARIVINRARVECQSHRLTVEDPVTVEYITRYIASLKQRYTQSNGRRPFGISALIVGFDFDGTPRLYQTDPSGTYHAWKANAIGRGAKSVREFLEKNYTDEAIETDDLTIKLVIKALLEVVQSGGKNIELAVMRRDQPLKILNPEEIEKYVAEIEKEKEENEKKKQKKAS

Row | Binder | binding result (human PA28α) | binding result (bovine iCP subunit α3) | also measured
1 | B1 | binds | – | binding result (human PA28β): binds
2 | B2 | – | binds | –
3 | B3 | – | binds | binding result (bovine iCP subunit α4): binds; binding result (bovine iCP subunit α6): binds
4 | B4 | binds | – | –
5 | B5 | binds | – | –

— publication PMC7854634, “Cryo-EM of mammalian PA28αβ-iCP immunoproteasome reveals a distinct mechanism of proteasome activation by PA28αβ” (Nature Communications, 2021)
